Read-outs that look alike come from different tables or passages of the source.
Legend:
SaSsbA [1] = biological target: T1, SaSsbA (Staphylococcus aureus, UniProt A0A0D1JHQ1); assay: EMSA inhibition of ssDNA binding
T1 construct: gene ssb; tetramer in crystal
T1 sequence (A0A0D1JHQ1 1-167): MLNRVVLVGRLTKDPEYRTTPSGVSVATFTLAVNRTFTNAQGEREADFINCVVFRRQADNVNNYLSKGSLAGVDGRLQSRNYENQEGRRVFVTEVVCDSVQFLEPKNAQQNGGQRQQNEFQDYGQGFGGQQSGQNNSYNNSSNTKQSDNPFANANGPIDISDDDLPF

[2] = biological target: T2, SaSsbA (Staphylococcus aureus) (UniProt A0A0D1JHQ1); assay: EMSA; conditions: EMSA: 40 mM Tris-HCl pH 7.5, 50 mM NaCl, 37 C, 60 min, 30 fmol/uL DNA (30 nM); 8% native PAGE in TBE
T2 sequence: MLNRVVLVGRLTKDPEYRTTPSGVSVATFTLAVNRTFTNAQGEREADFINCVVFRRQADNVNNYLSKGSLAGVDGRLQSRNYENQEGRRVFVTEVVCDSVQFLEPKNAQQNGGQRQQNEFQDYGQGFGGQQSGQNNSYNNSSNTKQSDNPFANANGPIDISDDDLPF

SaSsbA [3] = biological target: T3, SaSsbA (Staphylococcus aureus, UniProt A0A0D1JHQ1 1-167); assay: EMSA; EMSA: 40 mM Tris-HCl pH 7.5, 50 mM NaCl, 37 C, 60 min, 30 fmol/uL DNA (30 nM); 8% native PAGE in TBE; conditions: protein: recombinant; chain copies: 4; label: 5' biotin; single strand
SaSsbA [4] = biological target: T3, SaSsbA; assay: EMSA; no shift up to 10 uM protein; EMSA: 40 mM Tris-HCl pH 7.5, 50 mM NaCl, 37 C, 60 min, 30 fmol/uL DNA (30 nM); 8% native PAGE in TBE; conditions: protein: recombinant; chain copies: 4; label: biotin on PS4 (strand 1); blunt

O=C1c2c(O)cc(O)cc2O[C@H](c2ccc(O)cc2)[C@H]1O [dihydrokaempferol]
IC50 (SaSsbA [1]; read-out: IC50): 750 ± 62 µM

O=C1c2c(O)cc(O)cc2O[C@H](c2ccc(O)c(O)c2)[C@H]1O [dihydroquercetin]
IC50 (SaSsbA [1]; read-out: no inhibition at 1000 μM): > 1000 µM

CCCGAATTCGGATAGCTCGGTACCCTTTTTTTTTTTTTTTTTTTTTTTTT / GGGTACCGAGCTATCCGAATTCGGG [PS4/PS3-3'-dT25]
K half [2]: 940 nM

O=c1c(O)c(-c2cc(O)c(O)c(O)c2)oc2cc(O)cc(O)c12 [myricetin]
IC50 (SaSsbA [1]; read-out: no inhibition at 300 μM): > 300 µM

TTTTTTTTTTTTTTTTTTTTTTTTTTTTTTTTTTT (ssDNA) [dT35]
apparent K (half saturation) (SaSsbA [3]): 360 ± 20 nM

TTTTTTTTTTTTTTTTTTTT (ssDNA) [dT20]
apparent K (half saturation) (SaSsbA [3]): 1770 ± 110 nM

B1: dT59 (ssDNA)
DNA: TTTTTTTTTTTTTTTTTTTTTTTTTTTTTTTTTTTTTTTTTTTTTTTTTTTTTTTTTTT
apparent K (half saturation) (SaSsbA [3]): 240 ± 10 nM

B2: PS4/PS3 (dsDNA)
DNA 1: GGGTACCGAGCTATCCGAATTCGGG
DNA 2: CCCGAATTCGGATAGCTCGGTACCC
binding result (SaSsbA [4]): no binding

TTTTTTTTTTTTTTTTTTTTTTTTTTTTTT (ssDNA) [dT30]
apparent K (half saturation) (SaSsbA [3]): 460 ± 30 nM
